Laboratory results from the nanobody polyreactivity screen of Harvey et al. (2022).

Experiment: yeast display, Sf9 membrane polyspecificity reagent, FACS + sequencing; frameworks hold sequencing errors
Summary of the method: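 A synthetic nanobody library was expressed on Saccharomyces cerevisiae BJ5465 by galactose induction for 36–48 hours. The library was stained for 1 hour at 4 °C with 10% biotinylated, detergent-solubilized Sf9 membrane reagent and enriched with streptavidin microbeads before FACS. Low and high (top ~1%) gates were set on anti-HA fluorescence for expression and streptavidin fluorescence for reagent binding, and each polyreactivity label reflects the gate of origin.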

Sequence | polyreactivity (PSR sort gate)
QVQLVESGGGLVQAGGSLRLSCAASGSIFYYYAMGWYRQAPGKERELVAAISRSGGSTYYADSVKGRFTISRDNAKNTVYVQMNSLKRDDTAVYYCAAQSRYWTYDYWGQGTQVTVSS | high polyreactivity
QVQLVESGGGLVQAGGSLRLICSASGRTFAGYVMGWYRQAHGKERELVAAINASGGSTYYADSVKGRFTISRDNAKNTVYLQKNILKPEDTAVYYCAAARLGSDITRRYYYWGQGTQVTVSS | high polyreactivity
QVQLVESGGGLVQAGGSLRLSCAASGGTLFTNAMGWYRQAPGKERELVAAISWRGGRTYYADSVKGRFTISRDNAKNTVYLQMNSLKAEDTAVYYCAAASAAGYDYWGQGTQVTVSS | low polyreactivity
QVQLVESGGGLVQAGGSLRLRCAASGSTFTYNTMGWYRQAPGKERELVAAINTTGNTYADSVKGRFTISRDNAKNTVYLQMNSLKPEDTAVYYCNTDYVPRRHDMDYWGQGTQVTLSS | low polyreactivity
QVQLVESGGGLVQAGGSLRLSCAASGSTFWFYAMGWYRPAPGKERELVAVISNSGSTYYADSVKGRFTISRDNAKNTVYLQMNSLQPEDTAVYYCNKDGGGDSYWYDYWGQGTQVTVSS | low polyreactivity
QVQLVESGGGLVQAGGSLRLSCAATGFTFASYAMRLYRQAAGKETELVAAITWGTGTTSYADSVKGRFTISRDNAKNTVYLQMNSLKPEDTAVYYCATRFRPITYRRRYDYWGQGTQVTVSS | low polyreactivity
QVQLVESGGGVVQAGGRLRLSCAASGSIFTYYAMGWYRQAPGKERELVAAISYGGGSTYYADSVKGRFTISRDTAKNTVYLQMNSLKPEDTAVYYCNRVVGVKYGYWGQGTQVTVSS | high polyreactivity
QVQLVESVGGLVQAGGSLRLSCAASGRIFEVYVMGWYRQAPGKERELVAAISTGGSTYYADSVKGRFTISRDNAKNTVYLQMNSLKPEDTAVYYCAARKTRRYGSGHDYWGQGTQVTVSS | high polyreactivity
QVQLVESGGGLVQAGGSLRLSCAASGRIFLWYAMGWYRQAPGKERELVAAIWRGGSTYYADSVKGRFTISRDNAKNTVYLLMNSLKPEDTAVYYCAAEDVYFGYDYWGQGTQVTVSS | low polyreactivity
QVQHVESGGGLVQAGGSLRLSCAASGRIYFAYAMGWSRQAPGKERELVASITSGGSTNYADSVKGRFTISRDNGKNTLYLQMNSLKPEDTAVYYCAARSRFSNLYGRFYYWGQGTQVTVSS | high polyreactivity
QVQLVDTGGGLVQAGGSLRLSCAASGLTFQQYAMGWYRQAPRKERELVAAITSDGASTNYADSVKGRFTNSRDNAKNTVYLQMNSLKPEDCAVYYCAAGRRSRQYRYVYWGQGTQVTVSS | high polyreactivity
QVQLVESGGGLVQAGGSLRLSRAASGRIFHLYAMGWYRQAPGKERELVAAITGRGGSTYYADSVKGRFTISRDNAKNTVYLQMNSLKPEDTAVYYCAAYEFGFLRYYSGRSYYYWGQGTQVTVSS | high polyreactivity
QVQLVESGGGLVQAGGSLRLSCAASGRTIDSYAMGWYRQAPGKERELVAAISKSGGRTYYADSVKGRFTISRDNAKNTVYLQMNSLKPEDTAVYYCNAQRVAYWRVAYDYWGQGTQVTVSS | high polyreactivity
QVQLEESGGGLVQAGGSLRLSCAASGRTFGTNAMGWYRQAPGKERELVAAITTNGGRTYYADSVKGRFTISRDNAKNTVYLQMNSLKPEDTAVYYCAKYYQTDTYIYDYWGQGTQVTVSS | low polyreactivity
QVQLVESGGGLVQAGGSLRLSCAASGSTFYAYTMGWYRKAPGKERELVAGISRRGGTTYYADSVKGRFTISRDNAKNTVYLQMNSLKPEYTAVYYCAADKTKPQASEGYYAYYYWGQGTQVTVSS | low polyreactivity
QVQLVESGGGLVQAGGSLRLSCAASGSIITYYAMGGYRQAPGKERELVAGISARGGSTRYADSVKGRFTISRDNAKNTVYLQMNSLKPEDTAVYYCAADSRTNGYDYWGQGTQVTVSS | high polyreactivity
QVQLVESGGGLVQAGGSLRISCAASGRTFYRNAMGWNSKAPGKERELVAAIRRSDGSTYYADSVKGRFTISRDNAKNTVYLQMNSLKPEDTAVYYCAAGQGSRNLYYYWGQGTQVTVSS | high polyreactivity
QVQLVESGGGLVQAGGSLRLSCAASGFTFFIYVMGWYRQAPGKEREFVAAISSSGDSTYYADSVKGRFTISRDNAKNTVYLQMNSLKPEDTAVYYCAADRIRDLEFDYWGQGTQVTVSS | low polyreactivity
QVQLVESGGGLVQAGGSLRLSCAASGRIFTNAMGWYRQAPGKERELVAAISGGSNTYYADSVKGRFTISRDNAKNTVYLQMNSLKPEDTAVYYCNTDDLWWDGGYDYWGQGTQVTVSS | low polyreactivity
QVQLVESGGGLVQAGGSLRLSCAASGLTIWRYAMGWYRQAPGKEREFVATISQNGGRTYYADSVKGRFTISRDNAKNTVYLQMNSLKPEDTAVYYCAADDWRWGYDYWGQGTQVTVSS | high polyreactivity
QVQLVESGGGLVQAGGSLRLSCAASGSTFYPYAMGWYRQAPGKERELVAAISSRDGRTYYADSVKGRFTISRDNAKNTVYLQMNSLKPEDTAVYYCAAVRALRKVRDYYYWGQGTQVTVSS | high polyreactivity
QVQLVESGGGLVQAGGSLRLSCAASGNTFIDYAMGWYRQAPGKETELVAAITRGGRTNYADSVKGRFTISRDNAKNTVYLQMNSLKPEDTAVYYCAAALRRRRADFDYWGQGTQVTVSS | high polyreactivity

Sequence | polyreactivity (PSR sort gate)
QVQLVESGGGLVQAGGSLRLSCAASGIIFYDYAMGWYRQAPGKERELVAAISTDAGSTYYADSVKGRFTISRDNAKNTVYLQMNSLKPEDTAVYYCNADEHSYSVSWDYEYDYWGQGTQVTVSS | high polyreactivity
QVQLVESGGGLVQAGGSLRLTCAASGRTFPLNVMGWYRQAPGKERELVAAITVSAGSTYYADSVKGRFTISRDNAKNTVYLQMNSLKPEDTAVYYCAKATSSFYHYRYDYWGQGTQVTVSS | low polyreactivity
QVQLLESGGGLVLAGGSLRLSCAASGRIFNLYAMGWYRQAPGKERELVAAITDIGSSTYYADSVKGRFTISRDNAKNTVYLQMNSLKPEDTAVYYCNAVVKSSSRGSIAHPGYDYWGQGTQVTVSS | high polyreactivity
QVQLVESGGGLVQAGGSLRLSCAASGSTFVYMGGYRQAPGKEREFVAITFSGGRTYADSVKGRFTISRDNAKNTVYLQMNSLKPEDTAVYYCNKGDDFYSTYSYDYWGQGTQVTVSS | low polyreactivity
QVQLVESGGCLVQAGGSLRLRCAASGSSFAYNDMGWDRQAPGKDRELVATIRNGGSTYYADSVKGRFTISRDNAKNTVYLQRNSLKPEDTAVYYCAAVPLWDYKFCYYLLYDYWGQGTQVNVSS | low polyreactivity
QGQLVESGGGLVQAGGSLRLSCAASGRIFVPYGMGWYRQAPGKERELVAAITTGGSTNYADSVKGRFTISRDNAKNTVYLQMNSLKPEDTAVYYCAVDWYPQLIYSFNSELEYWGQGTQVTVSS | low polyreactivity
QVQLVESGGGLVQAGGSLRLSCAASGRTFANNAMGWYRQAPGKERELVAAITASGGRTYYADSVKGRFTISRDNAKNTVYLQLNSLKPEDTAVYYCAKRGYASGSKWDYGYWGQGTQVTVSS | high polyreactivity
QVQLVESGGCLVQAGGSLRLSCAASGFTFRYYAMGWYRQAPGKERELVAGITSGSRTNYADSVKGRFTISRDNAKNTVYLQMNSLKPEDSAVYYCAARIYNYQSWYDYWGQGTQVTVSS | high polyreactivity
QVQLGESGGGLVQAGGSLRLSCAASGRIFSHNAMGWDRQAPGKERELVAVISRSGTGTYYADSVKGRFTISRDNAKNTVYLQMNSLKPEDTAVYYCNTYYEWWYYWGQGTQVTVSS | high polyreactivity
QVQLVESGGGLVQAGRSLRLLSAASGSSIYFNGMGWYRQAPGKERELVAAITSGGSTDYADSVKGRFTISRDNEKNSVYLLMYSLKPEDTAVYYCNVQNGDRQITGYDYWGLGTQVTVSS | low polyreactivity
QVQLVESGGGLVQAGGSLRLSCAASGITFLPYTMGWYRQAPGKERELVATISWNGGSTYYADSVKGRFTISRDNAKNTVYLQMNSLKPEDTAVYYCATGKWGYFRYNYWGQGTQVTVSS | high polyreactivity
QDQLVESGGGLVQAGGSLRLSCAASGSTFVRYDMGWYRQAPGKERELVADISWSGVSTYADSVKGRFTISRDNAKNTVYLQMNSLKPEDTAVYYCAKDSDLYQRGGYYWGQGTQVTVSS | low polyreactivity
QVQLVESGGGLVQAGGSLRLTCAASGRIFKQYAMGWYRQAPGKEMELVATISSGGDTNYADSVKGRFTISRDNAKNTVYLQMNSLKPEDTAVYFCAAGDIYYAEYEYWGKGTQVTVSS | low polyreactivity
QVQLVESGGGLVQAGGSLRLSCAGSGRIFSENAMGWYRQAPGKERELVAAISVSGGSTYYADSVKGRFTISRDNAKNTVYLQMNSLKPEDTAVYYCAAEYLAYYSGYDYWGQGTQVTVSS | high polyreactivity
QVQILESGGGLVQAGGSLGLSCAASGSTFPPYAMGWYRQAPGKERELVATITRGGSTYYADSVKGRFTFSRDNAKNTVYVQMNSLKPADTAVYDCNAKVNRSRRSNLYDYWGQGTQVTVSS | high polyreactivity
QVQLVESGGGLVQAGGSLRLSCAASGFNFRANGMGWYRQAPGKERELVATITSGGTTNYADSVKGRFTISRDNAKNTVYLQMNSLKPEDTAVYYCDKRFGPAYFRLYDYWGQGTQVTVSS | low polyreactivity
QVQLVESGGGLVQAGGSLRLSCAASGFIFSYYAMGWYRQAPGKERELVAAISRNGGRTYYADSVKGRFTISRDNAKNTVYLQMNSLKPEDTAVYYCATGKIREDDYWGQGTQVTVSS | high polyreactivity
QVQLVESGGGLVQAGGSLRLSCAASGRIFPEYAMGWYRQAPGKERELVAAITSGGNYADSVKGRFTISRDNAKNTVYLQMNSLKPEDTAVYYCAAVYLWYGSWPLHFAAYDYWGQGTQVTVSS | low polyreactivity
QVQLVESGGGLLQAGGSLRLSCAASGFIFSLYAMGWYRQAPGKERELVASINRRGTSTFYADSVKGRFTISLDNAKKTVYLQMNSMKPEDTAVYYCNAYPVAAIRSTGSYDYWGQGTQVTVSS | low polyreactivity
QVQLVESGGGLVQAGGSLRLSCASSGRIFKYNAMGWYRQAPGKERELVAAISSSGARTYYADSVKGRFTISRDNAKNTVYLQMNSLKPEDTAVDYCAAPFTSNRSIRPYGYWGQGTQVTVSS | high polyreactivity
QVQLVESGGGLVQAGGSLRLSCAASGITLIRYAMGWYRQAPGKERELVAAINSSGGNTYYADSVKGRFTISRDNAKNTVYLQMNSLKPEDTAVYYCAAKYILDIIGSLDYWGQGTQVTVSS | low polyreactivity
